According to article PMC4356135, “Small heat shock protein 20 (Hsp20) facilitates nuclear import of protein kinase D 1 (PKD1) during cardiac hypertrophy” (Cell Communication and Signaling : CCS, 2015):

T1: PKD1 on the ProtoArray Human Protein Microarray (human, UniProt Q15139 1-912)
T1 construct: protein kinase D1 (PKD1) as spotted on the human protein microarray; construct not described; Proteins on this commercial array may carry a carrier tag; also called protein kinase D1; source: spotted on ProtoArray Human Protein Microarray (Invitrogen)
T1 sequence (looked up): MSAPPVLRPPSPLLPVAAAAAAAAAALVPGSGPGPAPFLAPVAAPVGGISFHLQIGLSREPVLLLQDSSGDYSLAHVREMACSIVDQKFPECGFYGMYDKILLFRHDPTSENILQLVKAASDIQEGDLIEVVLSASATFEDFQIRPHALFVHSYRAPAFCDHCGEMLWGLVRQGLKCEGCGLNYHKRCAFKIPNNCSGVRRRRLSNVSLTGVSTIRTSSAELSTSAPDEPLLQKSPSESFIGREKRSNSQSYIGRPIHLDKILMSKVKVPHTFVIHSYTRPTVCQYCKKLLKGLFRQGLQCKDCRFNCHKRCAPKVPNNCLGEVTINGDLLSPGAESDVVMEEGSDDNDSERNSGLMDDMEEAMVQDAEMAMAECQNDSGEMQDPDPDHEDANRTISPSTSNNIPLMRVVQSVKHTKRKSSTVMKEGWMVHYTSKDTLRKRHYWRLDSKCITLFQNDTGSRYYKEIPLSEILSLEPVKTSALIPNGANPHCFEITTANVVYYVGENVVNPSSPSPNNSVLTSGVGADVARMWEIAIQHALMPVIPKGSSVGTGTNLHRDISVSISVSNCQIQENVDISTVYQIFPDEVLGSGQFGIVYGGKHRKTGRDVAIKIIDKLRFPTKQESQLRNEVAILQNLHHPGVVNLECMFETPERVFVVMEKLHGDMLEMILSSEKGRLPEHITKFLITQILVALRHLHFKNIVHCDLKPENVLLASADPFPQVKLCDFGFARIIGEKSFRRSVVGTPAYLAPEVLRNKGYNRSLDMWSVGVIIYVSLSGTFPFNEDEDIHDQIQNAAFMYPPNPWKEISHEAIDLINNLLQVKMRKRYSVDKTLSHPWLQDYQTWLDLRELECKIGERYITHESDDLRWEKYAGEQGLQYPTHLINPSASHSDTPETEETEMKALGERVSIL

B1: His-tagged HSP20 protein (natural protein, UniProt O14558 1-160, looked up)
chain: MEIPVPVQPSWLRRASAPLPGLSAPGRLFDQRFGEGLLEAELAALCPTTLAPYYLRAPSVALPVAQVPTDPGHFSVLLDVKHFSPEEIAVKVVGEHVEVHARHEERPDEHGFVAREFHRRYRLPPGVDPAAVTSALSPEGVLSIQAAPASAQAPPPAAAK
notes: HSP20 (heat shock protein 20), open reading frame from Ultimate ORF clone IOH57317 in pENTR221, moved into pDEST-17 by Gateway cloning; also called His-HSP20; His-Hsp20; source: E. coli, purified (Ni-NTA Superflow resin); not shown: His, N-terminal, kept

Key:
[1] = biological target: T1, PKD1 on the ProtoArray Human Protein …; assay: peptide or protein array; ProtoArray Human Protein Microarray probed with 10 uM (200 ug/ml) His-HSP20 in 1xPBS, 5 mM MgCl2, 0.5 mM DTT, 0.05% Triton X-100, 5% glycerol, 1% BSA for 1.5 h at 4 C; detected with anti-His and Alexa Fluor 647 secondary antibody; control array in parallel; conditions: both partners purified
His-tagged HSP20 protein = biological target: B1; assay: peptide or protein array; sequence of PKD1 spotted as 25mer peptides each shifted by five amino acids, and alanine scanning array of the 606-630 peptide, overlaid with Hsp20; methods in ref. 31; conditions: both partners purified

binding result [1]	binding result (His-tagged HSP20 protein)	Binder
binds	–	B1
–	binds	GRDVAIKIIDKLRFPTKQESQLRNE (also called G606-E630; source: SPOT-synthesised peptide on array) [PKD1 25mer peptide spanning residues 606 to 630 (peptide array spot)]
